Measured values reported in the Immune Epitope Database (IEDB).
Values belong to the sequence of their own block, whether it stands above or below them.

Experiments:
HLA-A*02:01 [1] = assay: IEDB peptide-MHC binding, cellular MHC/competitive/fluorescence; ≥ and ≤ were set here for values at or beyond the usual limits of such assays; settings: source organism: Homo sapiens
HLA-B*15:09 = assay: IEDB peptide-MHC binding, purified MHC/direct/fluorescence; filed as Kd, often an IC50 or EC50 that approximates it; ≥ and ≤ were set here for values at or beyond the usual limits of such assays
HLA-B*44:02 = assay: as above
HLA-B*15:01 = assay: as above
HLA-A*02:01 [2] = assay: as above
HLA-A*03:01 = assay: as above
HLA-B*40:01 = assay: as above
HLA-B*58:01 = assay: as above
HLA-C*08:02 = assay: as above; settings: source organism: Coxiella burnetii Dugway 5J108-111
HLA-C*03:03 = assay: as above; settings: source organism: Coxiella burnetii Dugway 5J108-111
HLA-A*01:01 = assay: as above
HLA-B*27:05 = assay: as above
HLA-A*24:02 = assay: as above; settings: source organism: Coxiella burnetii
HLA-B*07:02 = assay: as above
HLA-A*68:23 = assay: IEDB peptide-MHC binding, purified MHC/competitive/fluorescence; filed as Kd, often an IC50 or EC50 that approximates it; ≥ and ≤ were set here for values at or beyond the usual limits of such assays; settings: source organism: Coxiella burnetii Dugway 5J108-111
HLA-B*15:42 = assay: as above
HLA-A*32:15 = assay: as above
HLA-B*83:01 = assay: as above
HLA-B*45:06 = assay: as above
HLA-A*32:07 = assay: as above
HLA-C*06:02 [3] = assay: as above
HLA-C*14:02 = assay: as above
HLA-A*03:19 = assay: as above; settings: source organism: Mycobacterium tuberculosis C
HLA-A*11:01 = assay: IEDB peptide-MHC binding, purified MHC/direct/fluorescence; filed as Kd, often an IC50 or EC50 that approximates it; ≥ and ≤ were set here for values at or beyond the usual limits of such assays
HLA-A*69:01 = assay: as above
HLA-B*08:02 = assay: as above; settings: source organism: Orthomarburgvirus marburgense
HLA-B*15:17 = assay: as above; settings: source organism: Marburg virus - Musoke, Kenya, 1980
HLA-B*57:01 = assay: as above; settings: source organism: Marburg virus - Musoke, Kenya, 1980
HLA-B*73:01 = assay: as above; settings: source organism: Marburg virus - Musoke, Kenya, 1980
HLA-A*31:01 = assay: as above
HLA-A*68:02 = assay: as above; settings: source organism: Marburg virus - Musoke, Kenya, 1980
HLA-B*48:01 = assay: as above; settings: source organism: Marburg virus - Musoke, Kenya, 1980
HLA-A*02:01 [4] = assay: IEDB peptide-MHC binding, purified MHC/competitive/fluorescence; filed as Kd, often an IC50 or EC50 that approximates it; ≥ and ≤ were set here for values at or beyond the usual limits of such assays
HLA-A*26:02 = assay: as above; settings: source organism: Orthomarburgvirus marburgense
HLA-B*18:01 = assay: as above; settings: source organism: Orthomarburgvirus marburgense
HLA-B*27:04 = assay: IEDB peptide-MHC binding, cellular MHC/competitive/fluorescence; ≥ and ≤ were set here for values at or beyond the usual limits of such assays; settings: source organism: Human herpesvirus 4 strain B95-8
HLA-A*30:01 = assay: IEDB peptide-MHC binding, purified MHC/direct/fluorescence; filed as Kd, often an IC50 or EC50 that approximates it; ≥ and ≤ were set here for values at or beyond the usual limits of such assays; settings: source organism: Escherichia coli O157:H7
HLA-A*26:01 = assay: as above; settings: source organism: Escherichia coli O157:H7
HLA-A*24:03 = assay: as above; settings: source organism: Escherichia coli O157:H7
HLA-B*08:01 = assay: as above; settings: source organism: Escherichia coli O157:H7
HLA-C*05:01 = assay: as above; settings: source organism: Yersinia pestis CO92
HLA-C*07:02 = assay: as above; settings: source organism: Yersinia pestis CO92
HLA-C*15:02 = assay: as above; settings: source organism: Yersinia pestis CO92
HLA-C*06:02 [5] = assay: as above; settings: source organism: Yersinia pestis CO92
HLA-B*51:01 = assay: IEDB peptide-MHC binding, purified MHC/competitive/fluorescence; filed as Kd, often an IC50 or EC50 that approximates it; ≥ and ≤ were set here for values at or beyond the usual limits of such assays; settings: source organism: Yersinia pestis CO92
HLA-B*27:20 = assay: as above; settings: source organism: Yersinia pestis CO92
[6] = source organism: Coxiella burnetii
[7] = source organism: Coxiella burnetii Dugway 5J108-111
[8] = source organism: Mycobacterium tuberculosis C
[9] = source organism: Marburg virus - Musoke, Kenya, 1980
[10] = source organism: Orthomarburgvirus marburgense
[11] = source organism: Escherichia coli O157:H7
[12] = source organism: Yersinia pestis CO92

IC50 (HLA-A*02:01 [1]): 2.58 µM
Sequence: ALVVQVAEA

Sequence: MTFPVSLEY
Kd (HLA-B*15:09; source organism: Coxiella burnetii Q321): ≥ 20 µM
Kd (HLA-B*44:02; [6]): ≥ 20 µM
Kd (HLA-B*15:01; [6]): 0.0434 µM
Kd (HLA-A*02:01 [2]; [6]): ≥ 20 µM
Kd (HLA-A*03:01; [6]): 0.0482 µM
Kd (HLA-B*40:01; [6]): ≥ 20 µM
Kd (HLA-B*58:01; [6]): 0.0249 µM
Kd (HLA-C*08:02): ≥ 20 µM
Kd (HLA-C*03:03): 0.24 µM
Kd (HLA-A*01:01; [6]): 0.014 µM
Kd (HLA-B*27:05; [6]): ≥ 20 µM
Kd (HLA-A*24:02): ≥ 20 µM
Kd (HLA-B*07:02; [6]): ≥ 20 µM
Kd (HLA-A*68:23): ≤ 0.0001 µM
Kd (HLA-B*15:42; [7]): ≥ 5 µM
Kd (HLA-A*32:15; [7]): 0.018 µM
Kd (HLA-B*83:01; [7]): 3.5 µM
Kd (HLA-B*45:06; [7]): ≥ 5 µM
Kd (HLA-A*32:07; [7]): 0.0363 µM
Kd (HLA-C*06:02 [3]; [7]): 0.0396 µM
Kd (HLA-C*14:02; [7]): 0.123 µM

Sequence: MVRQMRAAL
Kd (HLA-B*15:42; [8]): ≥ 5 µM
Kd (HLA-A*32:15; [8]): 0.356 µM
Kd (HLA-B*83:01; [8]): 0.0991 µM
Kd (HLA-B*45:06; [8]): ≥ 5 µM
Kd (HLA-A*03:19): 0.591 µM
Kd (HLA-C*06:02 [3]; [8]): 0.526 µM
Kd (HLA-C*14:02; [8]): 0.0335 µM

Sequence: NRWKSWFSY
Kd (HLA-A*11:01; [9]): ≥ 20 µM
Kd (HLA-A*69:01; [9]): ≥ 20 µM
Kd (HLA-B*15:09; [10]): ≥ 20 µM
Kd (HLA-B*15:01; [9]): ≥ 20 µM
Kd (HLA-B*08:02): ≥ 20 µM
Kd (HLA-B*15:17): ≥ 20 µM
Kd (HLA-B*57:01): ≥ 20 µM
Kd (HLA-B*73:01): 0.0098 µM
Kd (HLA-B*58:01; [9]): ≥ 20 µM
Kd (HLA-A*31:01; [9]): ≥ 20 µM
Kd (HLA-A*01:01; [9]): ≥ 20 µM
Kd (HLA-B*27:05; [9]): 0.0864 µM
Kd (HLA-A*68:02): ≥ 20 µM
Kd (HLA-B*48:01): ≥ 20 µM
Kd (HLA-B*07:02; [9]): ≥ 20 µM
Kd (HLA-A*02:01 [4]; [10]): 2.54 µM
Kd (HLA-A*26:02): ≥ 20 µM
Kd (HLA-B*18:01): ≥ 20 µM

Sequence: QRSYVSGVL
IC50 (HLA-B*27:04): 5 µM

Kd (HLA-A*11:01; [11]): 1.86 µM
Kd (HLA-A*69:01; [11]): ≥ 20 µM
Kd (HLA-B*44:02; [11]): ≥ 20 µM
Kd (HLA-A*30:01): 0.00693 µM
Kd (HLA-B*15:01; [11]): ≥ 20 µM
Kd (HLA-A*26:01): ≥ 20 µM
Kd (HLA-A*02:01 [2]; [11]): ≥ 20 µM
Kd (HLA-A*03:01; [11]): 11.6 µM
Kd (HLA-B*40:01; [11]): ≥ 20 µM
Kd (HLA-A*24:03): ≥ 20 µM
Kd (HLA-B*58:01; [11]): ≥ 20 µM
Kd (HLA-A*31:01; [11]): 0.0968 µM
Kd (HLA-B*08:01): ≥ 20 µM
Kd (HLA-A*01:01; [11]): ≥ 20 µM
Kd (HLA-B*27:05; [11]): ≥ 20 µM
Kd (HLA-B*07:02; [11]): ≥ 20 µM
Sequence: VTRQIHNPR

Sequence: YQLEMYHPI
Kd (HLA-C*05:01): ≥ 20 µM
Kd (HLA-C*07:02): 3.75 µM
Kd (HLA-C*15:02): ≥ 20 µM
Kd (HLA-C*06:02 [5]): ≥ 20 µM
Kd (HLA-B*51:01): ≥ 20 µM
Kd (HLA-A*02:01 [4]; [12]): 0.0002 µM
Kd (HLA-B*15:42; [12]): 15.2 µM
Kd (HLA-B*83:01; [12]): ≥ 5 µM
Kd (HLA-B*45:06; [12]): 3.21 µM
Kd (HLA-A*32:07; [12]): 0.0013 µM
Kd (HLA-B*27:20): 0.0008 µM
Kd (HLA-C*14:02; [12]): 0.0709 µM
